Reference: CN115975019A (INST PATHOGEN BIOLOGY CAMS, dated 2023)

Molecular target: T1, SARS-CoV-2 刺突ECD蛋白 (Sinobiological) (SARS-CoV-2, UniProt P0DTC2 14-1213)
T1 construct: extracellular domain; also called Spike ECD蛋白
Assay: ELISA, spike ECD coated 50 ng/well, antibody titrated

B1: A46抗体 (antibody, V domains shown)
VH: EVQLLESGGGLIQPGGSLRLSCAVSEFIVSRNYMSWVRQAPGKGLEWVSVLYPGGSTFYADSVKGRFTISRDESTNTLFLQMNTLRVEDTAVYYCARDFGDFYFDFWGQGTLVTVSS
VL: EIVLTQSPGTLSLSPGQRAALSCRASQSVSTYLAWYQQKPGQAPRLLIHDASSRASGVPDRFSGTGSGTDFTLTITRLEPEDFAVYYCQQYGTSPRTFGQGTKLEIK
notes: also called 抗体A46
B1 was tested. Which EC50 did it give?
The EC50 was 0.0261 µg/mL.

B2: A70抗体 (antibody, V domains shown)
VH: QITLKESGPTLVKPTQTLTLTCTFSGFSLDTPGVAIGWIRQPPGRALEWLGLIYWDGDERYNPSLTSRVTLTKDTSKNQVVLTMTNVDSVDTGTYFCGHKTIPTIFGVWGQGAPVTVSS
VL: QSALTQPASVSGSPGQSITISCAATSGDFGVFNYVSWYQQHPGKAPKLIIFEVSSRPSGVSNRFSGSKSGNTASLTVSGLQAEDEAVYHCSSYSTSSVVFGGGTKLTVL
notes: also called 抗体A70
Which EC50 does the source give for B2 here?
The EC50 was 0.0351 µg/mL.
